From article doi:10.1101/2023.02.19.529116 (bioRxiv, 2023) come the findings set out here.

B1: Smaug 73-278Δ156-196 (Smaug part of the single-chain construct) (domain or fragment, Drosophila, UniProt Q23972 73-278, looked up)
chain: LFCEQVTTVTNLFEKWNDCERTVVMYALLKRLRYPSLKFLQYSIDSNLTQNLGTSQTNLSSVVIDINANNPVYLQNLLNAYKTARKEDILHEVLNMLPLLKPGNEEAKLIYLTLIPVAVKDTMQQIVPTELVQQIFSYLLIHPAITSEDRRSLNIWLRHLEDHIQ
B2: Smaug 70-281 (domain or fragment, Drosophila, UniProt Q23972 70-281, looked up)
chain: SNALFCEQVTTVTNLFEKWNDCERTVVMYALLKRLRYPSLKFLQYSIDSNLTQNLGTSQTNLSSVVIDINANNPVYLQNLLNAYKTFQPCDLLDAMSSSSSDKDSMPCYGSDFQITTSAQCDERKLYARKEDILHEVLNMLPLLKPGNEEAKLIYLTLIPVAVKDTMQQIVPTELVQQIFSYLLIHPAITSEDRRSLNIWLRHLEDHIQAAA
B3: Smoothened 970-1003 synthetic peptide (peptide, UniProt P91682 970-1003, looked up)
peptide: VPSYGEDELQQAMRLLNAASRQRTEAANEDFGGT

Data set [1] deals with the molecule itself. As to the kind of experiment: crystal structure.
The target in data set [2] is B3. The data set can be described thus: ITC.
The data set “Smaug 70-281” deals with B2. As to the kind of experiment: ITC. In general terms: ITC needs no label: the signal is the heat of the interaction.
Data set [3] deals with B1. The data set can be described thus: crystal structure.
Data set [4] deals with the molecule itself. As to the kind of experiment: crystal structure. This is another data set of the same source.

As for B1, the binding result in the data set “crystal structure [1]” was “binds”.
As for B2, in data set [2], the “stoichiometry N” value came to 1.
Regarding B3, binding with Smaug 70-281 was put at a Kd of 800 nM.
As to VPSYGEDELQQAMRLLNAASRQRTEAANEDFGGT (peptide, UniProt P91682 970-1003, looked up) [Smo 970-1003 (Smoothened part of the single-chain construct)], the binding result in data set [3] was “binds”.

B4: His-Hs-SAMD4A 2-156 (domain or fragment, human, UniProt Q9UPU9 2-156, looked up)
chain: MFRDQVGVLAGWFKGWNECEQTVALLSLLKRVSQTQARFLQLCLEHSLADCAELHVLEREANSPGIINQWQQESKDKVISLLLTHLPLLKPGNLDAKVEYMKLLPKILAHSIEHNQHIEESRQLLSYALIHPATSLEDRSALAMWLNHLEDRTST
For B4, the “stoichiometry N” value in the data set “crystal structure [4]” stood at 2.

The stoichiometry N is a count of units in the complex or per binding partner. As usually defined, the Kd is a measure of binding affinity in units of concentration.
